# Data from paper doi:10.1101/2025.08.13.670189.
# Columns and labels:
# Assay in all cases: EMSA
# [1] = target: T1, LigR1 (Pseudomonas putida KT2440) (UniProt Q88JP0)
# T1 sequence: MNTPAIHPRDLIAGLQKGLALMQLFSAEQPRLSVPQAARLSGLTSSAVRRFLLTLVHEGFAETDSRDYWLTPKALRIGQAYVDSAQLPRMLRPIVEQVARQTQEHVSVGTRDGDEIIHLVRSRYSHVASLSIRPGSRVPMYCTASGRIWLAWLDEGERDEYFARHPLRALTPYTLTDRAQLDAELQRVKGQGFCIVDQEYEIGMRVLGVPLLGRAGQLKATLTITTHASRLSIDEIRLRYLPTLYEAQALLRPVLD
# [2] = target: T2, LigR2 (Pseudomonas putida KT2440) (UniProt Q88JP8)
# T2 sequence: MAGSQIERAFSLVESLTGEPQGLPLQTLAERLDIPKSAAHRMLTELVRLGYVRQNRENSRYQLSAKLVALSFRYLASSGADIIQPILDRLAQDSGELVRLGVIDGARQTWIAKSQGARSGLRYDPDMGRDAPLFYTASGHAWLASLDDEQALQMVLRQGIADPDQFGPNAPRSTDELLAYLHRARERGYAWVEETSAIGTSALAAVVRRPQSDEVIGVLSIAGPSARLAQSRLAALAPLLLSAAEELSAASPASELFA
# [3] = tested on: LigR2 (Pseudomonas putida KT2440)
# [4] = tested on: LigR1 (Pseudomonas putida KT2440)
Substance,binding [1],Kd [2],Kd [3],Kd [4]
GGTAATGCTGCCGGCCCATGATGCCGGCGCCAATCAAGGCAATACGAAGGGGTGCGTTCAACAGCCTGTCCTCTTGTCATTGTTGTTATGAAATTCTGAAACCGGGTTCCAAAATTCATACTCGACAATTTAGAACCAAGTTCAGCTTTTCAGAAGAACGGGCGCAACAGACTGTGCGGTAATCGACCGGAATATTCCCTCAGGCAAACAGCTCGCTGGCGGGACTGGCCGCCGACAGCTCTTCTGC (double strand) [lig2 intergenic region probe],no binding,150 nM,–,–
lig1 intergenic region probe,–,–,21600 nM,220 nM
lig2 intergenic region probe,–,–,150 nM,–
